Assay results as given in patent US6518415 (LUDWIG INSTITUTE FOR CANCER RESEARCH, dated 2003).

B1: humanized 3S193 antibody HuVH/HuVK (antibody, V domains shown)
VH: EVQLVESGGGVVQPGRSLRLSCSSSGFTFSDYYMYWVRQAPGKGLEWVAYMSNVGAITDYPDTVKGRFTISRDNSKNTLFLQMDSLRPEDTGVYFCARGTRDGSWFAYWGQGTPVTVSS
VL: DIQMTQSPSSLSASVGDRVTITCRSSQRIVHSNGNTYLEWYQQTPGKAPKLLIYKVSNRFSGVPSRFSGSGSGTDYTFTISSLQPEDIATYYCFQGSHVPFTFGQGTKLQIT
notes: also called 3S193 HuVH/HuVK
B2: humanized 3S193 antibody HuVHA/HuVKF (antibody, V domains shown)
VH: EVQLVESGGGVVQPGRSLRLSCSSSGFTFSDYYMYWVRQAPGKGLEWVAYMSNVGAITDYPDTVKGRFTISRDNAKNTLFLQMDSLRPEDTGVYFCARGTRDGSWFAYWGQGTPVTVSS
VL: DIQMTQSPSSLSASVGDRVTITCRSSQRIVHSNGNTYLEWYQQTPGKAPKLLIYKVSNRFSGVPSRFSGSGSGTDFTFTISSLQPEDIATYYCFQGSHVPFTFGQGTKLQIT
B3: humanized 3S193 antibody HuVHASY/HuVKF (antibody, V domains shown)
VH: EVQLVESGGGVVQPGRSLRLSCSSSGFTFSDYYMYWVRQAPGKGLEWVAYMSNVGAITDYPDTVKGRFTISRDNAKSTLYLQMDSLRPEDTGVYFCARGTRDGSWFAYWGQGTPVTVSS
VL: DIQMTQSPSSLSASVGDRVTITCRSSQRIVHSNGNTYLEWYQQTPGKAPKLLIYKVSNRFSGVPSRFSGSGSGTDFTFTISSLQPEDIATYYCFQGSHVPFTFGQGTKLQIT
notes: also called 3S193HuVHASY
B4: humanized 3S193 antibody HuVHAS/HuVKF (antibody, V domains shown)
VH: EVQLVESGGGVVQPGRSLRLSCSSSGFTFSDYYMYWVRQAPGKGLEWVAYMSNVGAITDYPDTVKGRFTISRDNAKSTLFLQMDSLRPEDTGVYFCARGTRDGSWFAYWGQGTPVTVSS
VL: DIQMTQSPSSLSASVGDRVTITCRSSQRIVHSNGNTYLEWYQQTPGKAPKLLIYKVSNRFSGVPSRFSGSGSGTDFTFTISSLQPEDIATYYCFQGSHVPFTFGQGTKLQIT
B5: murine monoclonal antibody 3S193 (antibody, V domains shown)
VH: EVKLVESGGGLVQPGGSLKLSCATSGFTFSDYYMYWVRQTPEKRLEWVAYMSNVGAITDYPDTVKGRFTISRDNAKSTLYLQMSRLRSEDTAMYYCARGTRDGSWFAYWGQGTLVTVSA
VL: DVLMTQTPLSLPVSLGDQASISCRSSQRIVHSNGNTYLEWYLQKPGQSPKLLIYKVSNRFSGVPDRFSGSGSGTDFTLKISRVEAEDLGVYYCFQGSHVPFTFGSGTKLEIK
notes: The N-terminal residues of the VK in the listing are dictated by the VK10BACK primer; also called murine 3S193

Tests used:
HSA [1] = biological target: T1, HSA (UniProt P02768 25-609); experiment: ELISA, HSA dried on Terasaki plates, Experiment A
T1 sequence (P02768 25-609): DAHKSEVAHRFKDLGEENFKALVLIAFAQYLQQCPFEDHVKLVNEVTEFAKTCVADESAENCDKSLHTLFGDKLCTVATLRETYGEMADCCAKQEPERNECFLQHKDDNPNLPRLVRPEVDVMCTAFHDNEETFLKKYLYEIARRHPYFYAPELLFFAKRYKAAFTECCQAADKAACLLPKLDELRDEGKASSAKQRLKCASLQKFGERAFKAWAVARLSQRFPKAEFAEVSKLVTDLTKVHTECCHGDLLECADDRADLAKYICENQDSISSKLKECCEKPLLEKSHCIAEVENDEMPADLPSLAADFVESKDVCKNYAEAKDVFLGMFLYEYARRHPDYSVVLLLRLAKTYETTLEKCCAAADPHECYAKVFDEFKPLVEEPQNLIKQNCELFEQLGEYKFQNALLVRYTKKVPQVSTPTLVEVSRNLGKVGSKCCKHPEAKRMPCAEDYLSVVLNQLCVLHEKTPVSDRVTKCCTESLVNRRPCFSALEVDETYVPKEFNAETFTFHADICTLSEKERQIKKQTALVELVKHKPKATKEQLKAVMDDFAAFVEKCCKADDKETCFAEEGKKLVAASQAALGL
Method: (§1) The plates were blocked for 1 hour at room temperature using PBS/3% BSA and washed three times with PBS. Serial dilutions of test antibodies in PBS/3% BSA were applied to the wells and the plates incubated for 1 hour before washing as above. Suitable anti-murine antibody or anti-human antibody alkaline phosphatase-conjugated antibodies were diluted in PBS/3% BSA and incubated in the wells for 1.5 h. After washing, colour was developed using diethanolamine and p-nitrophenyl phosphate at 37° C. for about 20 min and the absorbances measured at 405 mn.

HSA [2] = biological target: T1, HSA; experiment: ELISA, HSA dried on Terasaki plates, Experiment B
Method: as §1

| Binder | binding result (HSA [1]) | binding result (HSA [2]) |
| --- | --- | --- |
| B1 | no binding (tested: 100 µg/ml (highest concentration tested)) | – |
| B2 | – | no binding (tested: 100 µg/ml (highest concentration tested)) |
| B3 | – | no binding (tested: 100 µg/ml (highest concentration tested)) |
| B4 | – | no binding (tested: 100 µg/ml (highest concentration tested)) |
| B5 | no binding (tested: 100 µg/ml (highest concentration tested)) | – |
